Residue numbers refer to the chain shown, from its start. In names and notes the source's numbering stands.
B1: E35D/M47V/N48K/V68M/K89N: variant CD80 IgV-Fc, IgV SEQ ID NO:465 (protein)
chain: VIHVTKEVKEVATLSCGHNVSVEELAQTRIYWQKDKKMVLTMMSGDVKIWPEYKNRTIFDITNNLSIMILALRPSDEGTYECVVLKYENDAFKREHLAEVTLSVKAD
B2: E35D/M47I/L70M: variant CD80 IgV-Fc, IgV SEQ ID NO:199 (SEQ ID NO:125 in b995) (protein)
chain: B1 chain with V47I, K48N, M68V, L70M, N89K

Legend:
[1] = tested on: primary human pan T cells; test: Cytokine production following PD-L1-dependent costimulation; type: cell-based; conditions: mitomycin-c treated K562/OKT3/PDL1 aAPC; FIG. 6
[2] = molecular target: T1, huCTLA4 (Homo sapiens, UniProt P16410); test: Antagonism of CD80/CTLA-4 binding on CHO cells expressing CTLA-4; parameters: Full-length mammalian surface expression constructs for each of human CTLA-4, PD-L1, and CD28; conditions: 25 nM fluorochrome-conjugated wild-type CD80-Fc; FIG. 21
Method: After washing, cells were incubated with 25 nM fluorochrome-conjugated wild-type CD80-Fc. Bound fluorescent competitor protein was detected and measured by flow cytometry.
(§1) The multivalent variant CD80 IgSF domain fusion proteins were assessed to test for blocking of the PD-L1/PD-1 and CTLA-4/CD80 interaction performed substantially as described in Example 15. CHO/OKT3/PD-L1 and CHO/CTLA-4 cells were counted and plated at 100,000 cells/well and then incubated with fluorescently conjugated PD-1-Fc and CD80-Fc. Exemplary multivalent variant CD80 IgSF domain fusion proteins were incubated with the cells for 30 minutes. […] Cells were washed and incubated with 100 nM fluorescently conjugated PD-1-Fc and CD80-Fc competitor for 30 minutes. Cells were then washed and samples were acquired on a flow cytometer and MFIs of the fluorescently labeled molecules were determined.

[3] = molecular target: T2, PD-L1/PD-1 interaction (Homo sapiens, UniProt Q9NZQ7); test: PD-L1/PD-1 binding and blocking on CHO/PD-L1 cells; conditions: fluorescently conjugated PD-1-Fc; FIG. 7
T2 construct: expressed in transfected cells
Method: Binding of selected immunomodulatory fusion proteins to cells expressing PD-L1 was assessed to test for blocking of the PD-L1/PD-1 interaction. […] Samples were acquired on a flow cytometer and MFIs of the fluorescently labeled PD-1 were determined by Flowjo software analysis.
as §1

[4] = molecular target: T3, CD28 (Homo sapiens, UniProt P10747); test: Jurkat/IL2 + K562/OKT3/PD-L1 reporter assay; type: cell-based; parameters: host or cells: Jurkat cells expressing an IL-2-luciferase reporter
[5] = molecular target: T3, CD28; test: Flow binding to Jurkat/IL2 reporter cells (CD28); parameters: host or cells: Jurkat cells expressing an IL-2-luciferase reporter; conditions: Table E19; Jurkats (CD28); 33.3 nM
How it was run: (§2)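 Binding EC50 and PE mean fluorescence intensity derived by flow cytometry using PE-labelled anti-human Fc secondary. Target cells were CTLA4- or PD-L1-transfected CHO lines and CD28-expressing Jurkat/IL2 reporter cells, stained with fusion proteins on ice for 45 min following BSA blocking.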

[6] = molecular target: T1, huCTLA4; test: Flow binding to CHO cells stably expressing CTLA4; parameters: huCTLA4 and huPD-L1, full-length mammalian surface expression constructs were generated; expressed in transfected cells; host or cells: CHO cells, lentiviral transduction, sorted to >98% purity; conditions: Table E19; CHO cells stably expressing CTLA4; 33.3 nM
How it was run: as §2

[7] = molecular target: T3, CD28; test: CD28 costimulation via Fc receptor or PD-L1 dependent cross-linking (Jurkat/IL2 + K562/OKT3 +/- PD-L1); type: cell-based; parameters: host or cells: Jurkat cells expressing an IL-2-luciferase reporter; conditions: K562/0KT3 aAPC, luciferase signal
Method: In a further experiment, CD28 costimulation was assessed for variant CD80-IgV-Fc fusion proteins, where the Fc was an IgG1 Fc (e.g. SEQ ID NO:1517) capable of mediating effector activity via binding to Fc receptors (FcR). The experiment was carried out as described in part A above, except CD32-expressing K562 cells stably transduced with OKT3 (K562/OKT3) or OKT3 and PD-L1 (K562/OKT3/PD-L1) were used instead of the CHO/OKT3 and CHO/OKT3/PD-L1 cells, and the results are depicted in Table E9.

[8] = molecular target: T3, CD28; test: Jurkat/IL2 reporter assay: blockade of CD28 costimulation (plate-bound anti-CD3/CD86-Fc); type: cell-based; parameters: host or cells: Jurkat cells expressing an IL-2-luciferase reporter; conditions: Table E5; protein diluted to 40 nM before mixing with cells; 5 hours
How it was run: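 Readout is Bio-Glo luminescence after a 5 h, 37 °C stimulation of IL-2-luciferase Jurkat reporter cells on wells precoated (overnight, 4 °C) with anti-CD3 antibody and CD86-Fc. Cells were first mixed with CD80-Fc test proteins for 15 min at room temperature.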

[9] = tested on: huPD-L1 transduced MC38 tumor cells; test: In vitro cytotoxicity to huPD-L1 transduced MC38 tumor cells; type: cell-based, mouse; conditions: 100 nM or 10 nM; 72 hours; human pan T cells 1:5; FIG. 17
Method: This Example describes the assessment of in vitro cytotoxicity of huPD-L1 transduced MC38 tumor cells. MC38 tumor cells, non-transduced or transduced with huPD-L1, were treated with Mitomycin-C and plated with human pan T cells labelled with CFSE at a 1:5 ratio. […] As a control, an exemplary anti-PD-1 antibody nivolumab or an Fc (inert) only control also were assessed. Cells were then harvested and stained with 7-AAD viability dye. After acquiring samples on a flow cytometer, the percentage of dead cells was calculated using Flowjo analysis by gating on 7-AAD+ cells in the CFSE− gate.

[10] = molecular target: T3, CD28; test: Jurkat/IL2 + CHO/OKT3 +/- PD-L1 reporter assay: PD-L1-dependent CD28 costimulation; type: cell-based; parameters: host or cells: Jurkat cells expressing an IL-2-luciferase reporter; conditions: luciferase signal
How it was run: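 Readout is relative luminescence from lysed cocultures: test protein given 15 min at room temperature to Jurkat cells before adding CHO artificial APCs displaying OKT3 alone or OKT3 plus PD-L1, then 5 h at 37 °C, 5% CO2.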

T1 sequence (P16410 36-223): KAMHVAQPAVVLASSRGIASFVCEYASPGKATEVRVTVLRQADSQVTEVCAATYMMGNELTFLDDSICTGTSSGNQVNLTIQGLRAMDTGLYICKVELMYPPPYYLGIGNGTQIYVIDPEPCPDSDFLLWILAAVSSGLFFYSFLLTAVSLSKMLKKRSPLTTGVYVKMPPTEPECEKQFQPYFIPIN
T2 sequence (Q9NZQ7 19-290): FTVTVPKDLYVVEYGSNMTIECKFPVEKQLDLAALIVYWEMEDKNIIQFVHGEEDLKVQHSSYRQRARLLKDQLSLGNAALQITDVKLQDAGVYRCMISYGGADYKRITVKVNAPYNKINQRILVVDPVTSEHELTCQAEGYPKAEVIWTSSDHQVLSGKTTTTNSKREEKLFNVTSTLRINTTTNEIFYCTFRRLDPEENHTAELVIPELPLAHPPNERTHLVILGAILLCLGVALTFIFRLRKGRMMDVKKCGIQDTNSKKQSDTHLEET

| Molecule | IL-2 secretion in culture supernatants [1] | antagonism of binding of CD80 to CTLA-4 [2] | blocking of binding of PD-1 to PD-L1 [3] | PD-L1 dependent CD28 costimulation (luciferase activity) ([4]; IgV-Fc (inert), various concentrations, FIG. 5) | Relative Luciferase Units (RLU), CD80-Fe Cone 50 nM ([4]; Table E8, K562/OKT3/PD-L1 aAPC, 50 nM) [RLU] | CD28 MFI at 33.3 nM [5] | CTLA4 MFI at 33.3 nM [6] | CD28 costimulation, FcR Dependent Cross-Linking (No PD-L1), 0.6 nM ([7]; 0.6 nM) | CD28 costimulation, FcR Dependent Cross-Linking (No PD-L1), 50 nM ([7]; 50 nM) | Average Relative Luminescence Units [8] | cytotoxicity (percentage of dead 7-AAD+ tumor cells) [9] | PD-L1-Dependent CD28 Costimulation, +PD-L1, 0.6 nM ([10]; CHO/OKT3/PD-L1 aAPC, 0.6 nM) | PD-L1-Dependent CD28 Costimulation, +PD-L1, 50 nM ([10]; CHO/OKT3/PD-L1 aAPC, 50 nM) | PD-L1-Dependent CD28 Costimulation, No PD-L1, 50 nM ([10]; CHO/OKT3 aAPC, no PD-L1, 50 nM) | PD-L1-Dependent CD28 Costimulation, No PD-L1, […] ([10]; CHO/OKT3 aAPC, no PD-L1, […]) |
| --- | --- | --- | --- | --- | --- | --- | --- | --- | --- | --- | --- | --- | --- | --- | --- |
| B1 | resulted in IL-2 secretion in culture supernatants | antagonized the binding of CD80 to CTLA-4 | antagonize or block binding of PD-1 to PD-L1 | induced PD-L1 dependent CD28 costimulation in a dose-dependent manner | 1439 | 1348 | 20884 |  |  |  |  |  |  |  |  |
| B2 |  |  |  |  |  |  |  | 1609 | 5780 | 1077 Relative Luminescence Units | increased cytotoxicity against huPD-L1 transduced MC38 tumor cells, but not non-transduced MC38 parental cells | 1004 | 2629 | 600 | 549 |
